Results from PMC5656587, “Structure determination and activity manipulation of the turfgrass ABA receptor FePYR1” (Scientific Reports, 2017).
Blank lines part the entries; values can stand above or below the molecule they belong to.

What was measured:
FePYR1-ABA-AtHAB1 = molecular target: T1, FePYR1-ABA-AtHAB1 (Festuca elata, UniProt A0A2D1UXN2); experiment: AlphaScreen, ABA-dependent receptor-PP2C interaction; assay type: binding
T1 construct: H6-SUMO-FePYR1 and biotin-MBP-AtHAB1 (172-511), E. coli; tags kept for AlphaScreen; with Protein phosphatase 2C 16 (HAB1, Arabidopsis thaliana)
T1 sequence (A0A2D1UXN2 1-212): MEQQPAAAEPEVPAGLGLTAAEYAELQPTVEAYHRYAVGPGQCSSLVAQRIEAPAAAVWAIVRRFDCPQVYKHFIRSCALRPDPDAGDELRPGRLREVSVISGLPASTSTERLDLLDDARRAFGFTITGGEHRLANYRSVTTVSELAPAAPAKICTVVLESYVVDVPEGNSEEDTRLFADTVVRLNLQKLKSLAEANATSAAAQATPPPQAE
T1 sequence (Q9CAJ0 172-511 partner): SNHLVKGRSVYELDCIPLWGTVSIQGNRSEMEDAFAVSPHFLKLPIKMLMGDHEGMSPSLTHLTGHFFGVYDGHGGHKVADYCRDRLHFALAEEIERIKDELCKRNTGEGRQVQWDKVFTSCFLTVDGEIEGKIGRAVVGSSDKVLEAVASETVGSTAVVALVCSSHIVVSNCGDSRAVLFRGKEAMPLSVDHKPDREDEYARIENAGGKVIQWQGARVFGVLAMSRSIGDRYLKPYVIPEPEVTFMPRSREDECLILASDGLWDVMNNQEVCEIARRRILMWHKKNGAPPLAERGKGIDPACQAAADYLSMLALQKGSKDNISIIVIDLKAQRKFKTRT
Text: AlphaScreen, ABA-dependent receptor-PP2C interaction on FePYR1-ABA-AtHAB1 | EC50 values of FePYL1, FePYR1, ZjPYL2 in interacting with AtHAB1

AtPYR1 with AtHAB1 = molecular target: T2, AtPYR1 with AtHAB1 (Arabidopsis thaliana, UniProt O49686); experiment: as above; assay type: binding
T2 construct: gene PYR1; H6-SUMO-AtPYR1 (9-182) and biotin-MBP-AtHAB1 (172-511), E. coli; tags kept; with Protein phosphatase 2C 16
T2 sequence (O49686 9-182): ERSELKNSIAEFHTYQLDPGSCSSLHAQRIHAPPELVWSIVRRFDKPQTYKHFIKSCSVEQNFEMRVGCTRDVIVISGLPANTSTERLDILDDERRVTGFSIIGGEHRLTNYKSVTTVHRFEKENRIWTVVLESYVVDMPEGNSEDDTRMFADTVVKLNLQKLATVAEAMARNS
T2 sequence (Q9CAJ0 172-511 partner): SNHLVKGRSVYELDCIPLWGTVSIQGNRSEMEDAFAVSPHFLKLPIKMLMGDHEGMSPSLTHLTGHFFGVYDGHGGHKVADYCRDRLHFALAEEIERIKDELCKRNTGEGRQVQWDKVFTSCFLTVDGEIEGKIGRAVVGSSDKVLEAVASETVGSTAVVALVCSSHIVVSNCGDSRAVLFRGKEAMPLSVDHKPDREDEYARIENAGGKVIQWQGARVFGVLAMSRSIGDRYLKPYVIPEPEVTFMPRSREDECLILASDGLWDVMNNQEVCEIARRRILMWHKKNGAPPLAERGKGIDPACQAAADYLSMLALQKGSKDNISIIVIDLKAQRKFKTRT

FePYL1 with AtHAB1 = molecular target: T3, FePYL1 with AtHAB1 (Festuca elata, UniProt A0A2D1UXN6); experiment: as above; assay type: binding
T3 construct: H6-SUMO-FePYL1 and biotin-MBP-AtHAB1 (172-511), E. coli; tags kept; with Protein phosphatase 2C 16 (HAB1, Arabidopsis thaliana)
T3 sequence (A0A2D1UXN6 1-204): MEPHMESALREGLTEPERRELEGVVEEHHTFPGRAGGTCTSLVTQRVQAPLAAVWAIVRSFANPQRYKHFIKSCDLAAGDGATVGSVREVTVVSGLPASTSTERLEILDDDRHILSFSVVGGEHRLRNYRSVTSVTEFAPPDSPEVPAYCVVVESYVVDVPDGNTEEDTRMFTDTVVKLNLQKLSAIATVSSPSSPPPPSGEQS
T3 sequence (Q9CAJ0 172-511 partner): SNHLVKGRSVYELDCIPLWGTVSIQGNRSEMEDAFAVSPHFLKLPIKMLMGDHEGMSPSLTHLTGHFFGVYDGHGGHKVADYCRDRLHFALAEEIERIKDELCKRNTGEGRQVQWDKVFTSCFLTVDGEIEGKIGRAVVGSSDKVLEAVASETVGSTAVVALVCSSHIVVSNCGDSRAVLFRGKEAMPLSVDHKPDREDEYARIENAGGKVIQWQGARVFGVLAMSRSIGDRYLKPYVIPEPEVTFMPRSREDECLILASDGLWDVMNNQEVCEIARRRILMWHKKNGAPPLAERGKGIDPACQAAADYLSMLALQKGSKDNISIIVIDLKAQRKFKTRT
Text: AlphaScreen, ABA-dependent receptor-PP2C interaction on FePYL1 with AtHAB1 | EC50 values of FePYL1, FePYR1, ZjPYL2 in interacting with AtHAB1

AtPYR1 = molecular target: T4, AtPYR1 (Arabidopsis thaliana, UniProt O49686); experiment: ABA binding assay in supplement (method not given); details: affinity reported comparable to FePYR1
T4 construct: gene PYR1; homodimer
T4 sequence (O49686 9-182): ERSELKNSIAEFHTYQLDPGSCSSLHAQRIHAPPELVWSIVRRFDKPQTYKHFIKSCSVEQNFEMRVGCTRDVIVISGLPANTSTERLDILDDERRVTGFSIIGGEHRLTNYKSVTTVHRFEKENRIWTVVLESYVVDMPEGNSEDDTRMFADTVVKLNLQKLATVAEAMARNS

ZjPYL2 with AtHAB1 = molecular target: T5, ZjPYL2 with AtHAB1 (Zoysia japonica, UniProt A0A2D1UXP2); experiment: AlphaScreen, ABA-dependent receptor-PP2C interaction; assay type: binding
T5 construct: H6-SUMO-ZjPYL2 and biotin-MBP-AtHAB1 (172-511), E. coli; tags kept; with Protein phosphatase 2C 16 (HAB1, Arabidopsis thaliana)
T5 sequence (A0A2D1UXP2 1-216): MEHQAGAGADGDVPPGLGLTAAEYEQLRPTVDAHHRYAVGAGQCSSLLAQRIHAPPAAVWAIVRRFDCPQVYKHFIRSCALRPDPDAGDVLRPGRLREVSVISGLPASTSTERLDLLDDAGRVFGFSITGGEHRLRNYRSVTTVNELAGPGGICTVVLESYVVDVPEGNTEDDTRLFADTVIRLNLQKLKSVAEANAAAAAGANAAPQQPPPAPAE
T5 sequence (Q9CAJ0 172-511 partner): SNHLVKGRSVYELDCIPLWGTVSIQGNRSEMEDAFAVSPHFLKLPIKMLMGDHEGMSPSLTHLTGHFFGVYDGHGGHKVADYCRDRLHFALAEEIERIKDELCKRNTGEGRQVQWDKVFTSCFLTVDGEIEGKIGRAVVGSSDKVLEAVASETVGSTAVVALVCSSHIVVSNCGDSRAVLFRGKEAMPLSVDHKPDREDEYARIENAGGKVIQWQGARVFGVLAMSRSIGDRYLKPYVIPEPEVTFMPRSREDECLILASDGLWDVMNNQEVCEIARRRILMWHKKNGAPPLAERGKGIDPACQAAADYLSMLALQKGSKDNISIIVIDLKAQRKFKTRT
Text: AlphaScreen, ABA-dependent receptor-PP2C interaction on ZjPYL2 with AtHAB1 | EC50 values of FePYL1, FePYR1, ZjPYL2 in interacting with AtHAB1

[1] = molecular target: T6, biotin-MBP-tagged AtHAB1 (residues 172-511), Q9CAJ0; experiment: AlphaScreen; details: chain shown with the change, read off a plot
T6 chain: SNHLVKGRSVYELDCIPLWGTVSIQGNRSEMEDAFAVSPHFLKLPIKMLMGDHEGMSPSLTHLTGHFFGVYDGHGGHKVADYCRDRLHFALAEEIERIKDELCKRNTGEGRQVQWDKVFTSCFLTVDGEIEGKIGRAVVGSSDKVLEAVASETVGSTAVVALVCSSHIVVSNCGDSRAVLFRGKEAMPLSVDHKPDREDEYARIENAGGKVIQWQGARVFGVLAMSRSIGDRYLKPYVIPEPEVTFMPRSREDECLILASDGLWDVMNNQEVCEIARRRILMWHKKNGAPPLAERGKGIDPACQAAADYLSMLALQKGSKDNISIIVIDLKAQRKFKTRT

[2] = molecular target: the molecule itself; experiment: SEC; HPLC size-exclusion column chromatography with or without (+)-ABA; 43 kD protein marker
[3] = ABA (100 μM), parent: est. 8400
[4] = DMSO (no ABA), parent: est. 2200

B3: H6-SUMO-tagged FePYR1 I127A (protein)
chain: MEQQPAAAEPEVPAGLGLTAAEYAELQPTVEAYHRYAVGPGQCSSLVAQRIEAPAAAVWAIVRRFDCPQVYKHFIRSCALRPDPDAGDELRPGRLREVSVISGLPASTSTERLDLLDDARRAFGFTATGGEHRLANYRSVTTVSELAPAAPAKICTVVLESYVVDVPEGNSEEDTRLFADTVVRLNLQKLKSLAEANATSAAAQATPPPQAE
response (photon counts) ([1]; ABA (5 μM), parent: est. 17000): 9500
response (photon counts) [1, 4]: 2100

B4: H6-SUMO-tagged FePYR1 E111A (protein)
chain: MEQQPAAAEPEVPAGLGLTAAEYAELQPTVEAYHRYAVGPGQCSSLVAQRIEAPAAAVWAIVRRFDCPQVYKHFIRSCALRPDPDAGDELRPGRLREVSVISGLPASTSTARLDLLDDARRAFGFTITGGEHRLANYRSVTTVSELAPAAPAKICTVVLESYVVDVPEGNSEEDTRLFADTVVRLNLQKLKSLAEANATSAAAQATPPPQAE
response (photon counts) [1, 3]: 800

B5: AtPYR1 (size-exclusion chromatography, with or without ABA) (receptor, Arabidopsis, UniProt O49686 9-182, looked up)
chain: ERSELKNSIAEFHTYQLDPGSCSSLHAQRIHAPPELVWSIVRRFDKPQTYKHFIKSCSVEQNFEMRVGCTRDVIVISGLPANTSTERLDILDDERRVTGFSIIGGEHRLTNYKSVTTVHRFEKENRIWTVVLESYVVDMPEGNSEDDTRMFADTVVKLNLQKLATVAEAMARNS
notes: Arabidopsis ABA receptor PYR1; also called AtPYR1-apo; source: E. coli, purified
stoichiometry N [2]: 2

The next lines start with results.

EC50 (FePYR1-ABA-AtHAB1): 2.3 µM
EC50 (AtPYR1 with AtHAB1): 7.36 µM
EC50 (FePYL1 with AtHAB1): 0.671 µM
EC50 (ZjPYL2 with AtHAB1): 3.73 µM
Molecule: CC1=CC(=O)CC(C)(C)C1(O)/C=C/C(C)=C\C(=O)O (stereo in doubt) [(+)-ABA]
ABA binding assay in supplement (method not given) (AtPYR1): the binding affinity with ABA ... are comparable between these two ABA receptors

response (photon counts) ([1]; ABA (2 μM), parent: est. 6900): 750
response (photon counts) ([1]; ABA (10 μM), parent: est. 12000): 3000
response (photon counts) [1, 3]: 5800
B1: H6-SUMO-tagged FePYR1 S102A (protein)
chain: MEQQPAAAEPEVPAGLGLTAAEYAELQPTVEAYHRYAVGPGQCSSLVAQRIEAPAAAVWAIVRRFDCPQVYKHFIRSCALRPDPDAGDELRPGRLREVSVIAGLPASTSTERLDLLDDARRAFGFTITGGEHRLANYRSVTTVSELAPAAPAKICTVVLESYVVDVPEGNSEEDTRLFADTVVRLNLQKLKSLAEANATSAAAQATPPPQAE

response (photon counts) ([1]; ABA (5 μM), parent: est. 17000): 16000
response (photon counts) [1, 4]: 2200
B2: H6-SUMO-tagged FePYR1 L185C (protein)
chain: MEQQPAAAEPEVPAGLGLTAAEYAELQPTVEAYHRYAVGPGQCSSLVAQRIEAPAAAVWAIVRRFDCPQVYKHFIRSCALRPDPDAGDELRPGRLREVSVISGLPASTSTERLDLLDDARRAFGFTITGGEHRLANYRSVTTVSELAPAAPAKICTVVLESYVVDVPEGNSEEDTRLFADTVVRCNLQKLKSLAEANATSAAAQATPPPQAE
